# In patent US9969998B2, “Compositions of adenosine deaminase-2 (ADA2), variants thereof and methods of using same” (Halozyme, Inc., priority 2014, dated 2018):
# Columns and labels:
# [1] = Thermal stability by differential scanning fluorimetry (DSF); assay type: physicochemical; conditions: for Tm, melting temperature by DSF: 0.1-1 mg/mL protein
# Procedure: The stability of the rHuADA2 WT and variants was measured by differential scanning fluorimetry (DSF) at increasing temperatures. DSF measures conformational stability, which correlates with thermal stability. The melting temperature (Tm) in DSF is defined as the midpoint of the protein unfolding transition.
# Non-PEGylated WT rHuADA2, non-PEGylated rHuADA2 variants, and PEGylated forms of WT rHuADA2 and rHuADA2 variants were prepared at concentrations of 0.1-1 mg/mL and mixed with the ROX™ protein thermal shift dye (Applied Biosystems, Carlsbad, Calif.; Cat. No. 4461146) to a final dye concentration that corresponds to a 125-fold dilution of the stock ROX™ solution. Protein samples were then loaded into 96-well plate at a volume of 20 μL/well in triplicate. A ViiA7 RT-PCR System (Applied Biosystems, Carlsbad, Calif.) was used to measure the shift in fluorescence as the temperature of the samples were increased. The reactions were subjected to the following steps: incubation at 25° C. for 2 min; ramping of temperature from 25 to 99° C. at a rate of 0.05° C. per second; followed by a 99° C. incubation for 2 min. The wavelengths used for emission and excitation were 623 nanometers (nm) and 580 nm, respectively.
# [2] = Adenosine deaminase (ADA) enzymatic activity assay kit; assay type: biochemical; conditions: for % of WT adenosine deaminase activity: Table 23; for % activity vs. WT: relative to rHuADA2 WT (Table 21)
# [3] = Spectrophotometric adenosine deaminase assay at varying pH (pH optimum); assay type: biochemical
# Procedure: Adenosine deaminase activity of rHuADA2 and variants at varying pH were assessed to determine the pH optimum of each. The adenosine deaminase activity was determined spectrophotometrically by direct measurement of changes in adenosine absorbance. […] During the deamination reaction, the absorbance of ADO decreases while that of INO increases with time. Since the dynamic changes in absorbance make it difficult to monitor activity at a single wavelength, the relative ADO activity was determined as a ratio of the ADO peak to isobestic point (i.e. the wavelength where ADO and INO have the same extinction coefficient). The isobestic point, which is 253 nm, remains unchanged and is concentration independent, so that it is the reference point to correct for volume or intensity discrepancies.
# To construct the standard curve for ADO and INO, a series of solution mixtures in 0.001% Tween-20 containing different concentrations of ADO and INO were prepared. The total concentration of ADO and INO mix was 50 μM, in 1×PBS (10 mM phosphate, 137 mM NaCl, 2.7 mM KCl), pH 7.4. The samples were scanned with the wavelengths between 220 nm and 300 nm to determine the isosbestic point, where all spectra cross.
# For performing the spectrophotometric adenosine deaminase assay of ADA2 and variants, a 2× solution containing 10 mM ADO in 100 mM potassium phosphate buffer (KPB), 0.1% Tween-20 at different pHs (i.e. 5.5, 6, 6.5, 6.75, 7, 7.25, 7.4, 7.75 and 8) were prepared. A separate 2× solution containing 2 μg/mL WT rHuADA2 or variants were prepared in the same 100 mM potassium phosphate buffer (KPB), 0.1% Tween-20 at the respective pH (i.e. 5.5, 6, 6.5, 6.75, 7, 7.25, 7.4, 7.75 and 8). An equal volume of the ADO solution and the ADA2 solution (wildtype or variants) were mixed to initiate reaction. At each time point (i.e. 1, 3, 5, 7, 9, 11, 13 and 15 min), a small aliquot (4 μl) was removed and diluted 50 times by adding to 196 μl 1×PBS, pH 7.4. The diluted samples were further diluted 2 fold (in duplicates) by adding 85 μl samples to 85 μl 1×PBS in a UV-transparent half area plate. The absorbance at 253 nm and 261 nm were measured of each diluted sample.
# Adenosine concentration was determined using the A261/A253 ratio and the standard curve. Adenosine deaminase activity was measured by negative change in ADO concentration per min×100.
# [4] = PEGylated and non-PEGylated forms (Table 23)
# [5] = protein diluted to 5 μg/mL, serially diluted 2 fold (Table 21)
Molecule,% activity vs. WT [2],"Tm, melting temperature by DSF [1]",enzymatic activity relative to WT rHuADA2 [2],"adenosine deaminase activity mU/mL [2, 4]",% of WT adenosine deaminase activity [2],"adenosine deaminase activity mU/mL [2, 5]","ΔA/min, adenosine deaminase activity [2, 5]",Adenosine deaminase activity Δ [ADO]/min × (−100) ([3]; pH 5.5),Adenosine deaminase activity Δ [ADO]/min × (−100) ([3]; pH 6),Adenosine deaminase activity Δ [ADO]/min × (−100) ([3]; pH 6.5),Adenosine deaminase activity Δ [ADO]/min × (−100) ([3]; pH 6.75),Adenosine deaminase activity Δ [ADO]/min × (−100) ([3]; pH 7),Adenosine deaminase activity Δ [ADO]/min × (−100) ([3]; pH 7.25),Adenosine deaminase activity Δ [ADO]/min × (−100) ([3]; pH 7.4),Adenosine deaminase activity Δ [ADO]/min × (−100) ([3]; pH 7.75),Adenosine deaminase activity Δ [ADO]/min × (−100) ([3]; pH 8),Tm higher than WT ADA2 [1]
"R23E: ADA2 variant SEQ ID NO:30 (protein, human ADA2 R20E, mature numbering) IDETRAHLLLKEKMMRLGGELVLNTKEELANERLMTLKIAEMKEAMRTLIFPPSMHFFQAKHLIERSQVFNILRMMPKGAALHLHDIGIVTMDWLVRNVTYRPHCHICFTPRGIMQFRFAHPTPRPSEKCSKWILLEDYRKRVQNVTEFDDSLLRNFTLVTQHPEVIYTNQNVVWSKFETIFFTISGLIHYAPVFRDYVFRSMQEFYEDNVLYMEIRARLLPVYELSGEHHDEEWSVKTYQEVAQKFVETHPEFIGIKIIYSDHRSKDVAVIAESIRMAMGLRIKFPTVVAGFDLVGHEDTGHSLHDYKEALMIPAKDGVKLPYFFHAGETDWQGTSIDRNILDALMLNTTRIGHGFALSKHPAVRTYSWKKDIPIEVCPISNQVLKLVSDLRNHPVATLMATGHPMVISSDDPAMFGAKGLSYDFYEVFMGIGGMKADLRTLKQLAMNSIKYSTLLESEKNTFMEIWKKRWDKFIADVATK",207.1%,65.2 °C,improved enzymatic activity,129.9 mU/mL,106.8%,161.6 mU/mL,70.2,22.84,25.64,29.18,29.47,28.53,21.71,19.37,7.41,5.33,
"PEG-K374D: rHuADA2-K374D (SEQ ID NO:20) PEGylated on surface exposed lysines with linear PEG-20K (conjugate, linear PEG-20K on surface lysines; human ADA2 K371D, mature numbering) IDETRAHLLLKEKMMRLGGRLVLNTKEELANERLMTLKIAEMKEAMRTLIFPPSMHFFQAKHLIERSQVFNILRMMPKGAALHLHDIGIVTMDWLVRNVTYRPHCHICFTPRGIMQFRFAHPTPRPSEKCSKWILLEDYRKRVQNVTEFDDSLLRNFTLVTQHPEVIYTNQNVVWSKFETIFFTISGLIHYAPVFRDYVFRSMQEFYEDNVLYMEIRARLLPVYELSGEHHDEEWSVKTYQEVAQKFVETHPEFIGIKIIYSDHRSKDVAVIAESIRMAMGLRIKFPTVVAGFDLVGHEDTGHSLHDYKEALMIPAKDGVKLPYFFHAGETDWQGTSIDRNILDALMLNTTRIGHGFALSKHPAVRTYSWDKDIPIEVCPISNQVLKLVSDLRNHPVATLMATGHPMVISSDDPAMFGAKGLSYDFYEVFMGIGGMKADLRTLKQLAMNSIKYSTLLESEKNTFMEIWKKRWDKFIADVATK",,67.81 °C,,142 mU/mL,116.8%,,,,,,,,,,,,

# Continued, in another order:
% activity vs. WT [2],Molecule,"Tm, melting temperature by DSF [1]",enzymatic activity relative to WT rHuADA2 [2],"adenosine deaminase activity mU/mL [2, 4]",% of WT adenosine deaminase activity [2],"adenosine deaminase activity mU/mL [2, 5]","ΔA/min, adenosine deaminase activity [2, 5]",Adenosine deaminase activity Δ [ADO]/min × (−100) ([3]; pH 5.5),Adenosine deaminase activity Δ [ADO]/min × (−100) ([3]; pH 6),Adenosine deaminase activity Δ [ADO]/min × (−100) ([3]; pH 6.5),Adenosine deaminase activity Δ [ADO]/min × (−100) ([3]; pH 6.75),Adenosine deaminase activity Δ [ADO]/min × (−100) ([3]; pH 7),Adenosine deaminase activity Δ [ADO]/min × (−100) ([3]; pH 7.25),Adenosine deaminase activity Δ [ADO]/min × (−100) ([3]; pH 7.4),Adenosine deaminase activity Δ [ADO]/min × (−100) ([3]; pH 7.75),Adenosine deaminase activity Δ [ADO]/min × (−100) ([3]; pH 8),Tm higher than WT ADA2 [1]
402.3%,"K374E: ADA2 variant SEQ ID NO:21 (protein, human ADA2 K371E, mature numbering) IDETRAHLLLKEKMMRLGGRLVLNTKEELANERLMTLKIAEMKEAMRTLIFPPSMHFFQAKHLIERSQVFNILRMMPKGAALHLHDIGIVTMDWLVRNVTYRPHCHICFTPRGIMQFRFAHPTPRPSEKCSKWILLEDYRKRVQNVTEFDDSLLRNFTLVTQHPEVIYTNQNVVWSKFETIFFTISGLIHYAPVFRDYVFRSMQEFYEDNVLYMEIRARLLPVYELSGEHHDEEWSVKTYQEVAQKFVETHPEFIGIKIIYSDHRSKDVAVIAESIRMAMGLRIKFPTVVAGFDLVGHEDTGHSLHDYKEALMIPAKDGVKLPYFFHAGETDWQGTSIDRNILDALMLNTTRIGHGFALSKHPAVRTYSWEKDIPIEVCPISNQVLKLVSDLRNHPVATLMATGHPMVISSDDPAMFGAKGLSYDFYEVFMGIGGMKADLRTLKQLAMNSIKYSTLLESEKNTFMEIWKKRWDKFIADVATK",69.7 °C,improved enzymatic activity,,,313.8 mU/mL,136.5,15.76,19.15,27.09,25.72,24.63,21.88,18.32,5.98,4.25,1.4 °C
345.9%,"K374D: ADA2 variant SEQ ID NO:20 (protein, human ADA2 K371D, mature numbering) IDETRAHLLLKEKMMRLGGRLVLNTKEELANERLMTLKIAEMKEAMRTLIFPPSMHFFQAKHLIERSQVFNILRMMPKGAALHLHDIGIVTMDWLVRNVTYRPHCHICFTPRGIMQFRFAHPTPRPSEKCSKWILLEDYRKRVQNVTEFDDSLLRNFTLVTQHPEVIYTNQNVVWSKFETIFFTISGLIHYAPVFRDYVFRSMQEFYEDNVLYMEIRARLLPVYELSGEHHDEEWSVKTYQEVAQKFVETHPEFIGIKIIYSDHRSKDVAVIAESIRMAMGLRIKFPTVVAGFDLVGHEDTGHSLHDYKEALMIPAKDGVKLPYFFHAGETDWQGTSIDRNILDALMLNTTRIGHGFALSKHPAVRTYSWDKDIPIEVCPISNQVLKLVSDLRNHPVATLMATGHPMVISSDDPAMFGAKGLSYDFYEVFMGIGGMKADLRTLKQLAMNSIKYSTLLESEKNTFMEIWKKRWDKFIADVATK",66.8 °C,improved enzymatic activity,162.9 mU/mL,134%,269.8 mU/mL,117.3,12.19,10.68,14.22,12.90,13.22,12.86,10.55,1.55,3.46,
